Measurements: patent US20210338809A1, “Immune Tolerance-Inducing Agent and Therapeutic or Prophylactic Agent for Allergic Disorder” (Tokushima University, priority 2018, published 2021)

Legend:
[1] = test system: casein transdermally sensitized mice; test: Anaphylaxis-eliciting test by intraperitoneal challenge with casein after prophylactic immunization and casein transdermal sensitization; format: in vivo, mouse; settings: subcutaneous injection 1 μg casein twice before sensitization
[2] = test system: OVA transdermally sensitized model mice; test: Anaphylaxis-eliciting test using aspirin pre-administration and oral OVA challenge, rectal temperature monitoring; format: in vivo, mouse; settings: for change in rectal temperature: from 30 minutes after challenge
Protocol: Balb/c mice (6-7 weeks old, female) were subjected to hair removal on the back of the head with hair clippers, then, 100 μL of aqueous SDS solution (4%) was uniformly applied to damage their skin barrier function, and after 10 minutes, 100 μL of an aqueous solution of ovomucoid (OVM) (manufactured by NACALAI TESQUE, INC.) (10 mg/mL), 100 μL of an aqueous solution of ovalbumin (OVA) (manufactured by Sigma-Aldrich) (10 mg/mL), or 100 μL of an aqueous solution of casein (manufactured by Sigma-Aldrich) (10 mg/mL) was uniformly applied. Such allergen applications were carried out a total of 10 times (for 2 weeks with a frequency of 5 times/week) to generate a transdermally sensitized food allergic mouse model against OVM, OVA, or casein. The mice 10-14 days after transdermal sensitization were subjected to the following experiments.
In accordance with the schedule shown in FIG. 1, the present inventors performed two types of loadings of “ASA pre-administration” and “allergen oral administration” in combination on the allergen transdermally sensitized mouse model of the present invention to examine whether anaphylaxis could be reliably elicited. Experimental procedures and results are shown in the following (1) to (4).
The OVA transdermally sensitized model mice (body weight of about 20 g) of the present invention were fasted for 2 hours or more and then oral administration of ASA (manufactured by Sigma-Aldrich) dissolved in 50% ethanol (1.25 mg/100 μL/mouse) was performed. Also, as a control, a group was provided to which oral pre-administration of 50% ethanol alone without ASA was performed.
Thirty minutes after the pre-administration of ASA or ethanol, an aqueous OVA solution (manufactured by Sigma-Aldrich) was orally challenged (20 mg/100 μL/mouse). In addition, as a control, a group was provided to which only water (without OVA) was orally administered.
In this experiment, rectal temperatures were measured at 10-minute intervals starting from 10 minutes before OVA administration and for 90 to 120 minutes after administration. Then, the temperature change after OVA administration was monitored using the temperature 10 minutes before OVA administration as a reference value. It was determined that the mouse developed anaphylaxis when the rectal temperature decreased by 1° C. or more relative to the reference value.

[3] = test system: transdermally sensitized OVM allergic mouse model; test: Anaphylaxis-eliciting test with trace amount of OVM alone; format: in vivo
Protocol: Specifically, the transdermally sensitized OVM allergic mouse model (body weight of about 20 g, n=10) was subjected to fasting and ASA administration before the challenge test in accordance with the procedures of Example 2. Then an oral OVM challenge test was performed. The oral OVM challenge test was performed by orally challenging with 0.01 μg of OVM once and examining change in rectal temperature for 60 minutes.

Q: For casein, which “rectal temperature decrease in the other four cases” value [1] is on record?
A: The value was “worsening tendency”.

Q: What about the “improvement of rectal temperature decrease after intraperitoneal challenge test” value ([1]; n=5) of the same molecule?
A: The value was “only one case”.

Q: Which “change in rectal temperature” value [2] does the source give for `CC(=O)Oc1ccccc1C(=O)O` [ASA/50% ethanol, acetylsalicylic acid, reference compound] here?
A: Its value is “tendency of increase”.

B1: ovalbumin (protein, UniProt P01012 2-386, looked up)
Ovalbumin: GSIGAASMEFCFDVFKELKVHHANENIFYCPIAIMSALAMVYLGAKDSTRTQINKVVRFDKLPGFGDSIEAQCGTSVNVHSSLRDILNQITKPNDVYSFSLASRLYAEERYPILPEYLQCVKELYRGGLEPINFQTAADQARELINSWVESQTNGIIRNVLQPSSVDSQTAMVLVNAIVFKGLWEKAFKDEDTQAMPFRVTEQESKPVQMMYQIGLFRVASMASEKMKILELPFASGTMSMLVLLPDEVSGLEQLESIINFEKLTEWTSSNVMEERKIKVYLPRMKMEEKYNLTSVLMAMGITDVFSSSANLSGISSAESLKISQAVHAAHAEINEAGREVVGSAEAGVDAASVSEEFRADHPFLFCIKHIATNAVLFFGRCVSP
notes: ovalbumin, egg allergen
Q: With B1 as the molecule, how does the “decrease in rectal temperature” value ([2]; 10 minutes after oral OVA challenge) read?
A: Its value is “around 1.1 °C”.

Q: And the elicitation of anaphylaxis ([2]; oral OVA challenge 20 mg/mouse)?
A: Its elicitation of anaphylaxis is “extremely mild”.

B2: 50% ethanol+OVA: 50% ethanol alone pre-administered, followed by oral OVA challenge (protein, UniProt P01012 2-386, looked up)
Ovalbumin: B1 Ovalbumin
modifications: after 50% ethanol pretreatment
Q: B2 was tested. Which “change in rectal temperature” value [2] did it give?
A: The value was “increase”.

B3: ovomucoid (protein, UniProt P01005 25-210, looked up)
Ovomucoid: AEVDCSRFPNATDKEGKDVLVCNKDLRPICGTDGVTYTNDCLLCAYSIEFGTNISKEHDGECKETVPMNCSSYANTTSEDGKVMVLCNRAFNPVCGTDGVTYDNECLLCAHKVEQGASVDKRHDGGCRKELAAVSVDCSEYPKPDCTAEDRPLCGSDNKTYGNKCNFCNAVVESNGTLTLSHFGKC
Q: What does the source list for B3?
A: induction of anaphylaxis ([3]; 0.01 μg OVM alone orally): does not induce anaphylaxis; rectal temperature after administration ([3]; 0.01 μg OVM alone orally once, 60 minutes, n=10, ASA pre-administered): did not decrease
